We go through one protein from ChEMBL document CHEMBL2074194.

Substrate in series [1]: C[N+](C)(C)CCO
As to the kind of experiment: cells, lysate or membranes named.

Substrate in series [2]: CC[N+](CC)(CC)CC
As to the kind of experiment: cells, lysate or membranes named.

B1: Solute carrier family 22 member 2 (Rattus norvegicus) (protein)
chain: MSTVDDILEHIGEFHLFQKQTFFLLALLSGAFTPIYVGIVFLGFTPDHHCWSPGAAKLSQRCGWSQAEELNYTVPGLGPSDEASFLSQCMRYEVDWNQSTLDCVDPLSSLAADRNQLPLGPCEHGWVYNTPGSSIVTEFNLVCAHSWMLDLFQSVVNVGFFIGAMMIGYLADRFGRKFCLLVTILINAISGALMAISPNYAWMLVFRFLQGLVSKAGWLIGYILITEFVGLGYRRMVGICYQIAFTVGLLILAGVAYVIPNWRWLQFAVTLPNFCFLLYFWCIPESPRWLISQNKIVKAMKIIKHIAKKNGKSVPVSLQNLTPDEDAGKKLNPSFLDLVRTPQIRKHTLILMYNWFTSSVLYQGLIMHMGLAGDNIYLDFFYSALVEFPAAFIIILTIDRVGRRYPWAVSNMVAGAACLASVFIPDDLQWLKITIACLGRMGITMAYEMVCLVNAELYPTYIRNLGVLVCSSMCDIGGIITPFLVYRLTDIWMEFPLVVFAVVGLVAGALVLLLPETKGKALPETIEDAENMQRPRKKKEKRIYLQVKQADRPLS
Take B1: the Km in series [1] is 2000 µM; in series [2], 160 µM.
